Data published in paper PMC8551270 (Scientific Reports, 2021).
“Also recorded” adds a separate entry of the source.

How the values were obtained:
[1] = plasma samples from minipigs dosed i.v., pooled from two minipigs for each time point; details: Göttingen Minipigs, up to 288 h post dosing
[2] = molecular target: PYY3-36 analogue 60: [Lys4(TAMRA), Lys30(C20 diacid-gammaGlu-2xAdo)]PYY3-36 L30K (acylated) (UniProt P10082); assay: fluorescence polarization (TAMRA-labelled peptide; excitation 535/25 nm, emission 595/35 nm; Tecan Spark, 384-well plate); details: room temperature, 140 mM NaCl at pH 7.4, 150 mM NaCl at pH 6.0, 10 mM sodium phosphate at pH 7.4, 20 mM MES at pH 6.0
Sequence of PYY3-36 analogue 60: [Lys4(TAMRA), Lys30(C20 diacid-gammaGlu-2xAdo)]PYY3-36 L30K (acylated) (P10082 whole entry, stated change not applied): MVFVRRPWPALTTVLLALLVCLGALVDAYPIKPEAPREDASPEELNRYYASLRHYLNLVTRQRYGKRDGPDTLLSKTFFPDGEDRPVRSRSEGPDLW

[3] = molecular target: PYY3-36 analogue 59: [Lys4(TAMRA), Lys30(C16 diacid-gammaGlu-2xAdo)]PYY3-36 L30K (acylated) (UniProt P10082); assay: as above; details: room temperature, 140 mM NaCl at pH 7.4, 150 mM NaCl at pH 6.0, 10 mM sodium phosphate at pH 7.4, 20 mM MES at pH 6.0
Sequence of PYY3-36 analogue 59: [Lys4(TAMRA), Lys30(C16 diacid-gammaGlu-2xAdo)]PYY3-36 L30K (acylated) (P10082 whole entry, stated change not applied): as above

[4] = molecular target: PYY3-36 analogue 56: [Lys4(TAMRA), Lys30(C18 diacid-gammaGlu-2xAdo)]PYY3-36 L30K (acylated) (UniProt P10082); assay: as above; details: room temperature, 140 mM NaCl at pH 7.4, 150 mM NaCl at pH 6.0, 10 mM sodium phosphate at pH 7.4, 20 mM MES at pH 6.0
Sequence of PYY3-36 analogue 56: [Lys4(TAMRA), Lys30(C18 diacid-gammaGlu-2xAdo)]PYY3-36 L30K (acylated) (P10082 whole entry, stated change not applied): as above

[5] = molecular target: PYY3-36 analogue 58: [Lys4(TAMRA), Lys30(C14 diacid-gammaGlu-2xAdo)]PYY3-36 L30K (acylated) (UniProt P10082); assay: as above; details: room temperature, 140 mM NaCl at pH 7.4, 150 mM NaCl at pH 6.0, 10 mM sodium phosphate at pH 7.4, 20 mM MES at pH 6.0
Sequence of PYY3-36 analogue 58: [Lys4(TAMRA), Lys30(C14 diacid-gammaGlu-2xAdo)]PYY3-36 L30K (acylated) (P10082 whole entry, stated change not applied): as above

[6] = cited from earlier work

| Kd ([2]; pH 6.0) | Kd ([2]; pH 7.4) | Kd ([3]; pH 6.0) | Kd ([3]; pH 7.4) | Kd ([4]; pH 6.0) | Kd ([4]; pH 7.4) | Kd ([5]; pH 6.0) | Kd ([5]; pH 7.4) | Substance | fragment found [1] | also measured |
| --- | --- | --- | --- | --- | --- | --- | --- | --- | --- | --- |
| – | – | – | – | – | – | – | – | [(C18diacid-γGlu-2xAdo)]PYY3-36 | PYY3-34; also recorded: PYY3-35 | – |
| – | – | – | – | – | – | – | – | [C20diacid-Trx-γGlu-2xAdo]PYY3-36 | [C20diacid-Trx-LgGly-2xAdo]PYY3-34, major | – |
| – | – | – | – | – | – | – | – | [K^ε30(C18diacid-γGlu-2xAdo)]PYY3-36 | PYY4-36, minor; also recorded: PYY6-36, minor | – |
| 0.35 µM | 0.098 µM | 4.7 µM | 4.2 µM | 0.93 µM | 0.58 µM | 23 µM | 44 µM | human serum albumin (HSA), fatty-acid free | – | – |
| 0.46 µM | 0.27 µM | 5.3 µM | 4.5 µM | 0.89 µM | 0.6 µM | 34 µM | 48 µM | porcine serum albumin (PSA), charcoal-defatted | – | – |
| – | – | – | – | – | – | – | – | semaglutide | – | half-life in the minipig model [6]: approximately 46 hours |
